The assay has as its target T1, native SRPX2 of tEnd1.V^high mouse angiogenic endothelioma cells (mouse, UniProt Q8R054 26-468).
T1 construct: Endogenous protein from a mouse endothelioma cell line; also called native SPRXb 2; Sushi repeat-containing protein, X-linked, 2
T1 sequence (looked up): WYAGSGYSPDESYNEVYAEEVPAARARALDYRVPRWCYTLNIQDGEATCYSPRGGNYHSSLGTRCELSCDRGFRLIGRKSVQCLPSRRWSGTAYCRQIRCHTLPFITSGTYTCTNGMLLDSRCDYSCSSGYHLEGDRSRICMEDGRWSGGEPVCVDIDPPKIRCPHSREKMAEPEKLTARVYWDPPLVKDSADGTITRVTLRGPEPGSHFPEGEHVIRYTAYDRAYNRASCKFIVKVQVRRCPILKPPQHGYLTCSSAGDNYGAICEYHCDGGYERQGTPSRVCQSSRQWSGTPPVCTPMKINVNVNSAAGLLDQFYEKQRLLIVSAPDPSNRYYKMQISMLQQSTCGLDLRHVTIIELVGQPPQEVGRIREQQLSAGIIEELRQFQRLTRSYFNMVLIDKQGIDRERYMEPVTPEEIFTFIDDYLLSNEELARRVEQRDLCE
As to the kind of experiment: anti-uPAR immunoprecipitate from tEnd1.V^high lysate, blot re-probed with rabbit anti-SRPX2 antibody. How it is done: Pull down assay of SRPX2 by uPAR—The tEnd1.V^high cells were cell surface biotinylated (0.5 mg/ml of biotin in DPBS) for 15 min, blocked with 10% FCS in PBS and lysed in lysis buffer with addition of 0.5% CHAPS and proteinase inhibitors (Sigma). Pre-clearing was preformed subsequently with the protein G beads (40 μl beads/1 ml lysate) (Protein G Sepharose 4 fast flow, General Electrics) for 3×5 min at RT. Immuno-precipitation was performed by adding sheep anti-uPAR antibodies, precipitated with protein G beads and eluted with a lysis buffer. Immunoblots were preformed with sheep anti-uPAR antibodies and detected by anti-sheep HRP labeled antibodies and visualized by ECL.

Experimental findings from patent US20110052677A1 (RESEARCH DEVELOPMENT FOUNDATION, published 2011) are described below.

B1: vascular urokinase-type plasminogen activator receptor (uPAR) of tEnd1.V^high cells (receptor, mouse, UniProt P35456 24-298, looked up)
chain: LQCMQCESNQSCLVEECALGQDLCRTTVLREWQDDRELEVVTRGCAHSEKTNRTMSYRMGSMIISLTETVCATNLCNRPRPGARGRAFPQGRYLECASCTSLDQSCERGREQSLQCRYPTEHCIEVVTLQSTERSLKDEDYTRGCGSLPGCPGTAGFHSNQTFHFLKCCNYTHCNGGPVLDLQSFPPNGFQCYSCEGNNTLGCSSEEASLINCRGPMNQCLVATGLDVLGNRSYTVRGCATASWCQGSHVADSFPTHLNVSVSCCHGSGCNSPTG
notes: whole, on cells; Native GPI-linked receptor, immunoprecipitated from cell lysate after cell-surface biotinylation; Species is inferred from the mouse cell line; also called vascular uPAR; native uPAR
Consider B1, for which the binding result is “binds”.
